The target in experiment [1] is T1, wild-type STAT1, overexpressed (pLVX-STAT1-WT), lactylated in BMSCs on the PCL/nHA/SL scaffold (UniProt P42224 1-750, lysine lactylation, elevated 2.4-fold on the scaffold (Klac 0.797 ± 0.105); K193 named as the key lactylation site).
T1 sequence (looked up): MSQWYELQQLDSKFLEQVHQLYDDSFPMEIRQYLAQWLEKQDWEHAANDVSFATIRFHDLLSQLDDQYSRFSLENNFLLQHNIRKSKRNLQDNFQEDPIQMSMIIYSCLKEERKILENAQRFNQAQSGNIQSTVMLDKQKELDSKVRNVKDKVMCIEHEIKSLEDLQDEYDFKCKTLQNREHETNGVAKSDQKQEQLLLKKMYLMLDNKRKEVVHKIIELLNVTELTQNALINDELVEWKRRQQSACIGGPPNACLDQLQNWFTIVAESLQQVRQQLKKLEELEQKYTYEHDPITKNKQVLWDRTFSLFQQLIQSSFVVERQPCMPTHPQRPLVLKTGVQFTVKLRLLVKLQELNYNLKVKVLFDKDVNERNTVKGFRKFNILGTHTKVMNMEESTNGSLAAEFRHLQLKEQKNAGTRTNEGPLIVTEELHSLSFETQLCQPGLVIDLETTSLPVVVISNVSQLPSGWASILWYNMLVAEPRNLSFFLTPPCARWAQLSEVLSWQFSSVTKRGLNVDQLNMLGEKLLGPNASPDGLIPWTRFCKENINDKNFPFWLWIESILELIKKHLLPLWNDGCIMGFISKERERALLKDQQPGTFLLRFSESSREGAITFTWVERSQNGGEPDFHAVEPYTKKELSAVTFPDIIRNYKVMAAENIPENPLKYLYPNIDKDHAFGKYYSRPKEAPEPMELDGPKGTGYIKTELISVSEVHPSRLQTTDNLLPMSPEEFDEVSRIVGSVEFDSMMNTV
Kind of experiment: cell-based or functional assay.

Experiment [2] deals with T2, STAT1, endogenous in BMSCs (human (endogenous in BMSCs), UniProt P42224 1-750).
T2 construct: STAT1, endogenous in human bone marrow mesenchymal stem cells (ATCC PCS-500-012); STAT1 precipitated with anti-STAT1 antibody from scaffold-free Runx2-OE cells, which carry no STAT1 construct; source: endogenous, human BMSC lysate
T2 sequence (looked up): T1 sequence (looked up)
Kind of experiment: co-IP; BMSC lysates, no osteogenic induction, 48h post-transfection; STAT1 antibody for pull-down with IgG control, Protein A/G agarose; blots probed for lactylation and Runx2; cells scaffold-free or on PCL/nHA/SL scaffold; band intensities quantified. The note with it: partners not purified.

The target in experiment [3] is T3, wild-type STAT1, overexpressed (pLVX-STAT1-WT), scaffold-free BMSCs (UniProt P42224 1-750).
T3 construct: STAT1, wild type; No tag is stated for this experiment (the rescue lentivirus of another experiment is HA-tagged); The anti-STAT1 antibody precipitates the endogenous STAT1 as well; Lactylation was low in these cells (0.327 ± 0.046); also called STAT1-OE; source: human BMSCs, lentiviral transduction (pLVX-STAT1-WT), scaffold-free, in lysate
T3 sequence (looked up): T1 sequence (looked up)
The description is as above. The note with it: partners not purified.

In experiment [4] the target is T1, wild-type STAT1, overexpressed …. The description is as above. Particulars: partners not purified.

Data on one molecule can be found in publication PMC12302927, “Lactate-functionalized 3D-printed PCL/nHA scaffold drives BMSC osteogenesis via metabolic-epigenetic crosstalk” (Materials Today Bio, 2025).

B1: Runx2, overexpressed (pLVX-Runx2) (natural protein, UniProt Q13950 1-521, looked up)
chain: MASNSLFSTVTPCQQNFFWDPSTSRRFSPPSSSLQPGKMSDVSPVVAAQQQQQQQQQQQQQQQQQQQQQQQEAAAAAAAAAAAAAAAAAVPRLRPPHDNRTMVEIIADHPAELVRTDSPNFLCSVLPSHWRCNKTLPVAFKVVALGEVPDGTVVTVMAGNDENYSAELRNASAVMKNQVARFNDLRFVGRSGRGKSFTLTITVFTNPPQVATYHRAIKVTVDGPREPRRHRQKLDDSKPSLFSDRLSDLGRIPHPSMRVGVPPQNPRPSLNSAPSPFNPQGQSQITDPRQAQSSPPWSYDQSYPSYLSQMTSPSIHSTTPLSSTRGTGLPAITDVPRRISDDDTATSDFCLWPSTLSKKSQAGASELGPFSDPRQFPSISSLTESRFSNPRMHYPATFTYTPPVTSGMSLGMSATTHYHTYLPPPYPGSSQSQSGPFQTSSTPYLYYGTSSGSYQFPMVPGGDRSPSRMLPPCTTTSNGSTLLNPNLPNQNDGVDADGSHSSSPTVLNSSGRMDESVWRPY
notes: Runx2; The anti-Runx2 blot also sees the endogenous Runx2 of the BMSCs; also called Runx2-OE; source: human BMSCs, lentiviral transduction (pLVX-Runx2), in lysate
On to B1, for which the “Osteocalcin protein (Western blot) in Runx2-OE + STAT1-OE BMSCs on the PCL/nHA/SL scaffold, rescued to STAT1-KD-like levels” value in experiment [1] came out at 0.474. For the same molecule, the figures for the “relative co-IP band intensity” value in experiment [2], in experiment [3] and in experiment [4] were 0.582, 0.845 and 0.286, respectively.
